Measured values published in publication PMC11555231, “A cyclic peptide toolkit reveals mechanistic principles of peptidylarginine deiminase IV regulation” (Nature Communications, 2024).
Bridge positions count the residues as written; N and C are the ends. Square brackets hold non-standard residues; d marks the D form.

How the values were obtained:
[1] = biological target: T1, N-terminally biotinylated human PADI4 (bio-His-PADI4) (human, UniProt Q9UM07 1-663, G55S (read from the plasmid's DNA at D1:p46, codon AGC)); not stated by the …, biotin on the Avi-Tag (BirA)); experiment: SPR; single cycle kinetics, Biacore T200 or S200; Bio-His-PADI4 captured on a Biotin CAPture chip (~2000 RU), peptide as analyte; 25 °C; 50 mM HEPES pH 7.5, 150 mM NaCl, 2 mM DTT, 0.05% Tween-20, 0.1% DMSO, 10 mM Ca2+; 1:1 binding model; settings: both partners purified
T1 construct: human PADI4, residues 1-663, cloned into p28BIOH-LIC; The COLDER assays used His-PADI4 from the same plasmid made without BirA (not biotinylated); also called Bio-hPADI4 wt; Avi-His-PADI4; source: E. coli BL21-DE3 co-expressing biotin ligase (BirA), purified (Ni-NTA, S200 size exclusion); not shown: Avi-Tag, N-terminal, kept; His6, N-terminal, kept
T1 sequence (Q9UM07 whole entry G55S/V82A/G112A, the tested form may be a part): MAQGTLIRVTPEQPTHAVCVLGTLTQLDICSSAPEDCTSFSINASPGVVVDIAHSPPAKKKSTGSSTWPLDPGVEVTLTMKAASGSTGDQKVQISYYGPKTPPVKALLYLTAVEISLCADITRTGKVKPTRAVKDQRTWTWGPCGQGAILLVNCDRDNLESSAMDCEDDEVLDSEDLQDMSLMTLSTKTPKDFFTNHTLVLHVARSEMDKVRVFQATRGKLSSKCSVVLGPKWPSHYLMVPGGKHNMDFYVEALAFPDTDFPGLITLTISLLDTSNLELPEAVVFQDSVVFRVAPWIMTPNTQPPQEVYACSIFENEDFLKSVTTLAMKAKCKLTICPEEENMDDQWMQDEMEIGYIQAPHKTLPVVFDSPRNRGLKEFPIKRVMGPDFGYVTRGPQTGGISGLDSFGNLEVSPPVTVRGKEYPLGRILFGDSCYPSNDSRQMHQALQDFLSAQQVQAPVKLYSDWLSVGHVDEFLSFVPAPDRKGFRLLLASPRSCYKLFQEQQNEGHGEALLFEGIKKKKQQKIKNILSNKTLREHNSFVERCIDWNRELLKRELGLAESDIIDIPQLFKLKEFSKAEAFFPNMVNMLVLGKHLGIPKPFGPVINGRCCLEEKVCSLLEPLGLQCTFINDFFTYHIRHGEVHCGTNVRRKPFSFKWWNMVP

[2] = biological target: T1, N-terminally biotinylated human PADI4 …; experiment: SPR; as a1 with 10 mM Ca2+ and 200 µM Cl-amidine (PADI4 active site covalently blocked with Cl-amidine); settings: both partners purified
[3] = biological target: T2, N-terminally biotinylated recombinant human PADI4 (bio-His-PADI4) (human, UniProt Q9UM07 1-663, biotin on the N-terminal Avi-Tag (BirA)); experiment: SPR; as a1 but 0 mM CaCl2 (calcium-free running buffer); Bio-His-PADI4 captured, peptide as analyte; 25 °C; 1:1 binding model; settings: both partners purified
T2 construct: human peptidylarginine deiminase IV (PADI4), residues 1-663; (vector p28BIOH-LIC, Addgene plasmid 62352); also called Bio-hPADI4 wt; PADI4_WT; source: E. coli BL21-DE3 co-expressing biotin ligase (BirA), purified (Ni-NTA, S200 SEC); not shown: Avi-Tag (biotinylated), N-terminal, kept; His6, N-terminal, kept
T2 sequence (Q9UM07 whole entry, the tested form may be a part): as the sequence (Q9UM07 whole entry G55S/V82A/G112A, the tested form may be a part) above, with S55G, A82V, A112G counted along it

[4] = biological target: T3, bio-His-PADI4 with the active site covalently blocked by Cl-amidine (human, UniProt Q9UM07 1-663, biotin on the N-terminal Avi-Tag (BirA); active site covalently blocked with Cl-amidine (residue not stated)); experiment: SPR; as a1 with 10 mM CaCl2 and the PADI4 active site blocked with Cl-amidine; Bio-His-PADI4 captured, peptide as analyte; 25 °C; 1:1 binding model; settings: both partners purified
T3 construct: human peptidylarginine deiminase IV (PADI4), residues 1-663; Same protein as m1; also called 10 mM CaCl2 + Cl-amidine; source: E. coli BL21-DE3 co-expressing biotin ligase (BirA), purified (Ni-NTA, S200 SEC); treated with Cl-amidine; not shown: Avi-Tag (biotinylated), N-terminal, kept; His6, N-terminal, kept
T3 sequence (Q9UM07 whole entry, the tested form may be a part): as the sequence (Q9UM07 whole entry G55S/V82A/G112A, the tested form may be a part) above, with S55G, A82V, A112G counted along it

[5] = biological target: T2, N-terminally biotinylated recombinant …; experiment: SPR; single cycle kinetics, Biacore T200 or S200; Bio-His-PADI4 captured on a Biotin CAPture chip (~2000 RU), peptide as analyte; 50 mM HEPES pH 7.5, 150 mM NaCl, 2 mM DTT, 0.05% Tween-20, 0.1% DMSO, 10 mM CaCl2; 25 °C; 1:1 binding model; settings: both partners purified
PADI4_D168A [6] = biological target: T4, PADI4_D168A (human, UniProt Q9UM07 1-663, D168A); experiment: SPR; single cycle kinetics; biotinylated PADI4 (wild type or single-residue variant) captured on a Biotin CAPture chip, peptide or peptide analogue as analyte; 50 mM HEPES pH 7.5, 150 mM NaCl, 2 mM DTT, 0.05% Tween-20, 0.1% DMSO; 25 °C; CaCl2 concentration not told for these runs; settings: both partners purified
T4 construct: human PADI4, residues 1-663, single substitution; source: E. coli BL21-DE3, purified (Ni-NTA, S200 SEC), as told for the wild type
T4 sequence (Q9UM07 whole entry D168A, the tested form may be a part): as the sequence (Q9UM07 whole entry G55S/V82A/G112A, the tested form may be a part) above, with S55G, A82V, A112G, D168A counted along it

PADI4_E167A [7] = biological target: T5, PADI4_E167A (human, UniProt Q9UM07 1-663, E167A); experiment: as above; settings: both partners purified
T5 construct: human PADI4, residues 1-663, single substitution; source: E. coli BL21-DE3, purified (Ni-NTA, S200 SEC), as told for the wild type
T5 sequence (Q9UM07 whole entry E167A, the tested form may be a part): as the sequence (Q9UM07 whole entry G55S/V82A/G112A, the tested form may be a part) above, with S55G, A82V, A112G, E167A counted along it

PADI4_C166F [8] = biological target: T6, PADI4_C166F (human, UniProt Q9UM07 1-663, C166F); experiment: as above; settings: both partners purified
T6 construct: source: E. coli BL21-DE3, purified (Ni-NTA, S200 SEC), as told for the wild type
T6 sequence (Q9UM07 whole entry C166F): as the sequence (Q9UM07 whole entry G55S/V82A/G112A, the tested form may be a part) above, with S55G, A82V, A112G, C166F counted along it

PADI4_N373A = biological target: T7, PADI4_N373A (human, UniProt Q9UM07 1-663, N373A); experiment: as above; settings: both partners purified
T7 construct: human PADI4, residues 1-663, single substitution; source: E. coli BL21-DE3, purified (Ni-NTA, S200 SEC), as told for the wild type
T7 sequence (Q9UM07 whole entry N373A, the tested form may be a part): as the sequence (Q9UM07 whole entry G55S/V82A/G112A, the tested form may be a part) above, with S55G, A82V, A112G, N373A counted along it

PADI4_R394A [9] = biological target: T8, PADI4_R394A (human, UniProt Q9UM07 1-663, R394A); experiment: as above; settings: both partners purified
T8 construct: human PADI4, residues 1-663, single substitution; source: E. coli BL21-DE3, purified (Ni-NTA, S200 SEC), as told for the wild type
T8 sequence (Q9UM07 whole entry R394A, the tested form may be a part): as the sequence (Q9UM07 whole entry G55S/V82A/G112A, the tested form may be a part) above, with S55G, A82V, A112G, R394A counted along it

PADI4_D165A [10] = biological target: T9, PADI4_D165A (human, UniProt Q9UM07 1-663, D165A); experiment: as above; settings: both partners purified
T9 construct: human PADI4, residues 1-663, single substitution made by mutagenesis of the plasmid; source: E. coli BL21-DE3, purified (Ni-NTA, S200 SEC), as told for the wild type
T9 sequence (Q9UM07 whole entry D165A, the tested form may be a part): as the sequence (Q9UM07 whole entry G55S/V82A/G112A, the tested form may be a part) above, with S55G, A82V, A112G, D165A counted along it

[11] = biological target: human PADI4 stably expressed in E14 mouse embryonic stem cells (hPADI4-stable) (human, UniProt Q9UM07 1-663); experiment: cell-based or functional assay
human PADI4 stably expressed in E14 mouse embryonic stem cells (hPADI4-stable), sequence (Q9UM07 whole entry): as the sequence (Q9UM07 whole entry G55S/V82A/G112A, the tested form may be a part) above, with S55G, A82V, A112G counted along it

[12] = biological target: His-tagged recombinant human PADI4 (His-PADI4) (human, UniProt Q9UM07 1-663); experiment: cell-based or functional assay
His-tagged recombinant human PADI4 (His-PADI4), sequence (Q9UM07 whole entry): as the sequence (Q9UM07 whole entry G55S/V82A/G112A, the tested form may be a part) above, with S55G, A82V, A112G counted along it

PADI4_D168A [13] = biological target: T4, PADI4_D168A; experiment: cell-based or functional assay
PADI4_E167A [14] = biological target: T5, PADI4_E167A; experiment: cell-based or functional assay
PADI4_C166F [15] = biological target: T6, PADI4_C166F; experiment: cell-based or functional assay
PADI4_R394A [16] = biological target: T8, PADI4_R394A; experiment: cell-based or functional assay
PADI4_D165A [17] = biological target: T9, PADI4_D165A; experiment: cell-based or functional assay

B1: PADI4_11 (peptide)
peptide: YESCRYRQVLQL
modifications: not fully specified; acetylated N-terminus (L-tyrosine 1) joined by a thioether bond to the side chain of Cys4 (cyclic); C-terminal amide
notes: cyclic peptide from RaPID selection 3; also called PAD4_11; source: synthetic peptide (Fmoc solid-phase synthesis, HPLC-purified)
koff [1]: 0.1 s⁻¹ | kon [1]: 200000 M⁻¹ s⁻¹ | koff [2]: 0.1 s⁻¹ | kon [2]: 300000 M⁻¹ s⁻¹

B2: PADI4_10 (peptide)
peptide: YPWEISVWLLYCG
modifications: not fully specified; D-tyrosine at position 1; cyclised via a thioether bond between the N-terminus (chloroacetylated) and the cysteine side chain (Cys12, from the letters); C-terminal amide
notes: cyclic peptide from RaPID selection 2 (0 mM CaCl2); source: synthetic peptide (Fmoc solid-phase synthesis, HPLC purified)
Kd [3]: > 2000 nM | Kd [4]: > 2000 nM | Kd [5]: > 2000 nM

B3: PADI4_3 (peptide)
peptide: {CH2CO}-[dY]RDHHYRHPKYCG-NH2
modifications: thioether N-12
notes: cyclic peptide from RaPID selection 1 (10 mM CaCl2); source: synthetic peptide (Fmoc solid-phase synthesis, HPLC purified)
Kd (PADI4_D168A [6]): 20 nM | Kd (PADI4_E167A [7]): 7 nM | Kd (PADI4_C166F [8]): 3 nM | Kd (PADI4_N373A): 83 nM | Kd (PADI4_R394A [9]): 8 nM | Kd (PADI4_D165A [10]): 61 nM | EC50 of inhibition of H3 citrullination in hPADI4-stable mES cells stimulated with KSR/2i for 3 h (high-content imaging) [11]: 200 nM

B4: PADI4_12 (peptide)
peptide: YEPCRFREILDL
modifications: not fully specified; L-tyrosine at position 1; cyclised via a thioether bond between the N-terminus (chloroacetylated) and the cysteine side chain (Cys4, from the letters); C-terminal amide
fold reduction of the calcium requirement K50(Ca2+) of PADI4 activity by 30 µM peptide (COLDER assay) [12]: 4 fold

B5: PADI4_11 (peptide)
peptide: {CH2CO}-YESCRYRQVLQL-NH2
modifications: thioether N-4
notes: cyclic (lariat) peptide from RaPID selection 3 (10 mM CaCl2 + Cl-amidine); also called PAD4_11; source: synthetic peptide (Fmoc solid-phase synthesis, HPLC purified)
Kd (PADI4_D168A [6]): 4000 nM | Kd (PADI4_E167A [7]): 700 nM | Kd (PADI4_C166F [8]): > 10000 nM | Kd (PADI4_N373A): > 10000 nM | Kd (PADI4_R394A [9]): > 10000 nM | Kd (PADI4_D165A [10]): 3000 nM | ratio of K50(Ca2+) with DMSO to K50(Ca2+) with 30 µM PADI4_11 (COLDER assay) (PADI4_D168A [13]): 2.9 fold | ratio of K50(Ca2+) with DMSO to K50(Ca2+) with 30 µM PADI4_11 (COLDER assay) (PADI4_E167A [14]): 2.7 fold | ratio of K50(Ca2+) with DMSO to K50(Ca2+) with 30 µM PADI4_11 (COLDER assay) (PADI4_C166F [15]): 0.9 fold | ratio of K50(Ca2+) with DMSO to K50(Ca2+) with 30 µM PADI4_11 (COLDER assay) (PADI4_R394A [16]): 1.1 fold | ratio of K50(Ca2+) with DMSO to K50(Ca2+) with 30 µM PADI4_11 (COLDER assay) (PADI4_D165A [17]): 1.5 fold

B6: PADI4_6 (peptide)
peptide: YLVLTIRLVLCG
modifications: not fully specified; D-tyrosine at position 1; cyclised via a thioether bond between the N-terminus (chloroacetylated) and the cysteine side chain (Cys11, from the letters); C-terminal amide
notes: as for B3
Kd [3]: > 2000 nM | Kd [4]: > 2000 nM | Kd [5]: > 2000 nM

B7: PADI4_1 (peptide)
peptide: YFYRIGFWYPNYQCG
modifications: not fully specified; D-tyrosine at position 1; cyclised via a thioether bond between the N-terminus (chloroacetylated) and the cysteine side chain (Cys14, from the letters); C-terminal amide
notes: cyclic peptide from RaPID selection 1 (10 mM CaCl2); also called PAD4_1; source: synthetic peptide (Fmoc solid-phase synthesis, HPLC purified)
Kd [3]: 105 nM | Kd [4]: 727 nM | Kd [5]: 205 nM

B8: PADI4_9 (peptide)
peptide: YAQWYIWVLLCG
modifications: not fully specified; D-tyrosine at position 1; cyclised via a thioether bond between the N-terminus (chloroacetylated) and the cysteine side chain (Cys11, from the letters); C-terminal amide
notes: as for B2
Kd [3]: > 2000 nM | Kd [4]: > 2000 nM | Kd [5]: > 2000 nM
